In patent US20140072613A1 (published 2014):

Experiments:
Test in all cases: cell-based or functional assay
MEK1(h) = MEK1(h) (human, UniProt Q02750 1-393)
CDK3/cyclinE(h) = CDK3/cyclinE(h) (human, UniProt Q00526 1-305; P24864 1-410)
Mer(h) = target: T1, Mer(h) (human, UniProt Q12866 578-872, limits assumed)
T1 sequence (looked up): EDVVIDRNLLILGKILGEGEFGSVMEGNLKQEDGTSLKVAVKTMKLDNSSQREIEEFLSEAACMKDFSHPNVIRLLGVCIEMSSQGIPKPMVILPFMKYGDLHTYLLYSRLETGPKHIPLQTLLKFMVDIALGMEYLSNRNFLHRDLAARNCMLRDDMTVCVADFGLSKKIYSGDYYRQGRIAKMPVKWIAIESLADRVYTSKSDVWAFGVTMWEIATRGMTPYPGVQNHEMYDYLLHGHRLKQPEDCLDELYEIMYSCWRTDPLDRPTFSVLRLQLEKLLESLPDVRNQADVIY

Abl(Y253F)(h) = Abl(Y253F)(h) (human, UniProt P00519 27-1130, limits assumed)
Sequence of Abl(Y253F)(h) (P00519 27-1130 Y253F limits assumed): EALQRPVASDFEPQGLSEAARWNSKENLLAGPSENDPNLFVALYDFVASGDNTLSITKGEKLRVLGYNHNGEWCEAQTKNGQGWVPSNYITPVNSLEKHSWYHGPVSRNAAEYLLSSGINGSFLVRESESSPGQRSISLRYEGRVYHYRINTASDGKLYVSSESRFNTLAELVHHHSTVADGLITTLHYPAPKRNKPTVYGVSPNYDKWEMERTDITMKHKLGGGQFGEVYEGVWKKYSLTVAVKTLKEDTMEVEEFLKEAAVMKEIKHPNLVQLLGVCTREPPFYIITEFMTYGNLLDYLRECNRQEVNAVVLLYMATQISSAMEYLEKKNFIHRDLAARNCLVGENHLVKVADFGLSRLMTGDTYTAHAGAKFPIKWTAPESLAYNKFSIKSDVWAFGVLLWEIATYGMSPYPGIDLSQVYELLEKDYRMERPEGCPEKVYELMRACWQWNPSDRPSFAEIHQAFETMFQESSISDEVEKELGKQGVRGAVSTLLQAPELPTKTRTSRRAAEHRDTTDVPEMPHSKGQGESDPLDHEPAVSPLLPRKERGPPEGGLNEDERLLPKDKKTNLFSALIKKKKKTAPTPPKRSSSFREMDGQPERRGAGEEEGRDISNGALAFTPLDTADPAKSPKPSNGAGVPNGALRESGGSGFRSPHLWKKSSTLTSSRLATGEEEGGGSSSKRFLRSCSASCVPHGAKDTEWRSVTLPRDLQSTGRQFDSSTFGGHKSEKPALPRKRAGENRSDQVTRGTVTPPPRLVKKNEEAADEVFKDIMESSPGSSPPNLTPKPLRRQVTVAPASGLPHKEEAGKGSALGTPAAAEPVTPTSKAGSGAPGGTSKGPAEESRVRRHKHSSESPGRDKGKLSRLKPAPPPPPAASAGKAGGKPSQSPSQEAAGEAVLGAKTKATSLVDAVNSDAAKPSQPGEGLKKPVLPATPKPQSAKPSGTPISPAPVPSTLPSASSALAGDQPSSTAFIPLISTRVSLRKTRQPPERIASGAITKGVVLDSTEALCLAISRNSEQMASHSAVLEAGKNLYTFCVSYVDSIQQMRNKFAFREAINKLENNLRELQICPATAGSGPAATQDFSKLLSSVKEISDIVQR

MAPKAP-K2(h) = MAPKAP-K2(h) (human, UniProt P49137 46-400)
Sequence of MAPKAP-K2(h) (P49137 46-400 limits assumed): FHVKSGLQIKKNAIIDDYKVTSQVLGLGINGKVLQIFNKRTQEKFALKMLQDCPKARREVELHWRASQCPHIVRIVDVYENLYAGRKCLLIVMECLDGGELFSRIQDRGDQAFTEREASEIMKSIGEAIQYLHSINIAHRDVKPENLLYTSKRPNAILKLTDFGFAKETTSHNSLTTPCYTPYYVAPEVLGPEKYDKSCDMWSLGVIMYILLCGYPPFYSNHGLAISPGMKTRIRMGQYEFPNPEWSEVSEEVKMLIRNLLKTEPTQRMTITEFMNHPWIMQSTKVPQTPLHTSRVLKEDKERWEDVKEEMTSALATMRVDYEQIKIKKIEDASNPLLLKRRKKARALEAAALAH

cSRC(h) = cSRC(h) (human, UniProt P12931 1-536)
DAPK1(h) = DAPK1(h) (human, UniProt P53355 1-363, limits assumed)
Sequence of DAPK1(h) (P53355 1-363 limits assumed): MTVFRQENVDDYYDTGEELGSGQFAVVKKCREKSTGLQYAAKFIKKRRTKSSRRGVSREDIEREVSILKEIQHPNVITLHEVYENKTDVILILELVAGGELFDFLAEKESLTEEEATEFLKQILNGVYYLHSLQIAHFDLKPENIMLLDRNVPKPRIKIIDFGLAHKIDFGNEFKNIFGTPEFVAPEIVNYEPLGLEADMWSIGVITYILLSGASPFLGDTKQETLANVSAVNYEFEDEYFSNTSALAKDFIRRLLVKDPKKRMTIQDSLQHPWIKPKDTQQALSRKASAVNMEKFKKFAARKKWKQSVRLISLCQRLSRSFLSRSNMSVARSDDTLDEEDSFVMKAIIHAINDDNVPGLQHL

EphA5(h) = target: T2, EphA5(h) (human, UniProt P54756 595-1037, limits assumed)
T2 sequence (looked up): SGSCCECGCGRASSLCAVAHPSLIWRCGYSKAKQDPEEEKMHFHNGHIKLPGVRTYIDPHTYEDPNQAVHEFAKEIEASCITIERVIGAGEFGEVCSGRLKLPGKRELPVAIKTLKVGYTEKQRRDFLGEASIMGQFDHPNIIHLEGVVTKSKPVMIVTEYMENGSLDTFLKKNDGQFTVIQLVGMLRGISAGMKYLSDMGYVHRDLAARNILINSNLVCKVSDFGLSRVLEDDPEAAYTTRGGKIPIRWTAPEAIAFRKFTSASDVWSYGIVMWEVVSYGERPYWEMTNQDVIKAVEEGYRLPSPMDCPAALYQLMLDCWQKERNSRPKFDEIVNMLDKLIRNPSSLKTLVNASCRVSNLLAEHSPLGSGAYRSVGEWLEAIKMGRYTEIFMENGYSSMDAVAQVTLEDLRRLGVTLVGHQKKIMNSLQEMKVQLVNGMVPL

PKCβII(h) = PKCβII(h) (human, UniProt P05771-2 1-673)
Sequence of PKCβII(h) (P05771 other isoform, or with tags, fused parts or gaps): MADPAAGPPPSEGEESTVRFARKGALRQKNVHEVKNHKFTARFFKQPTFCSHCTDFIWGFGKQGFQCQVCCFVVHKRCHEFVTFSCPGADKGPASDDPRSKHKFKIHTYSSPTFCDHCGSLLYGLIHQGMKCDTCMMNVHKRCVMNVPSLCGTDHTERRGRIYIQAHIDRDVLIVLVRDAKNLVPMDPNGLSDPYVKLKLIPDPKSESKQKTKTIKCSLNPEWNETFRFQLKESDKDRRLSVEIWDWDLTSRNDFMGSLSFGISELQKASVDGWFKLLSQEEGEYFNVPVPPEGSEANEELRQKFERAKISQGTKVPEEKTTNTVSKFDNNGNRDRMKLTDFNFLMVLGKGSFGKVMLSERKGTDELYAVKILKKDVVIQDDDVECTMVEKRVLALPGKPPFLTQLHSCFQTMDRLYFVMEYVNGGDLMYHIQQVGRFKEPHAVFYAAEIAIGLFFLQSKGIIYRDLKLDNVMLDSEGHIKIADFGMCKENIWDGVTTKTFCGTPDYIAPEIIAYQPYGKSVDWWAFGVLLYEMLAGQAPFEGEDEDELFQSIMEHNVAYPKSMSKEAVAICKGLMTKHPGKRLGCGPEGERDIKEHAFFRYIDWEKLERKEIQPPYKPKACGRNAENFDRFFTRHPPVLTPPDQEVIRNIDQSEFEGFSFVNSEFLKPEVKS

EphA3(h) = target: T3, EphA3(h) (human, UniProt P29320 566-983, limits assumed)
T3 sequence (looked up): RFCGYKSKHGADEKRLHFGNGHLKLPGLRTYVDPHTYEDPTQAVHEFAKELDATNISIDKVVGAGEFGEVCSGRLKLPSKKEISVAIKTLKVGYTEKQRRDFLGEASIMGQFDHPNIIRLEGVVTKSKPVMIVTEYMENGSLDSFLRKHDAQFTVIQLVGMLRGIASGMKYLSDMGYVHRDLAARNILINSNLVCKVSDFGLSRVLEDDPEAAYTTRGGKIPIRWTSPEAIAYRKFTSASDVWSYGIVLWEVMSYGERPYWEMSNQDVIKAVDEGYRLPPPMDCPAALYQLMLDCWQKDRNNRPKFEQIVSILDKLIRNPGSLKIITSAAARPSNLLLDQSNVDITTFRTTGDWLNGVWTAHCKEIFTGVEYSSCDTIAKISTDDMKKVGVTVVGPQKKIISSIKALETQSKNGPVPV

DAPK2(h) = DAPK2(h) (human, UniProt Q9UIK4 1-370, limits assumed)
Sequence of DAPK2(h) (Q9UIK4 whole entry): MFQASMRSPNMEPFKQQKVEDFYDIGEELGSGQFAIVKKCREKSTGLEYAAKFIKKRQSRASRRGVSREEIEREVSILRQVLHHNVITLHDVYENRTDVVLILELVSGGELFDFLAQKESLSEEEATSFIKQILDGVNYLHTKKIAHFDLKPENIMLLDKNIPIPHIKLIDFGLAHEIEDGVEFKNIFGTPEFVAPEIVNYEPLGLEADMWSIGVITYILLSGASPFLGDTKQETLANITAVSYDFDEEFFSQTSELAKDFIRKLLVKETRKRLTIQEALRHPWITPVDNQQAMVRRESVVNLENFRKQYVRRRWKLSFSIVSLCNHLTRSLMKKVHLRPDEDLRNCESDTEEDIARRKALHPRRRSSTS

PAK2(h) = PAK2(h) (human, UniProt Q13177 1-524)
Sequence of PAK2(h) (Q13177 whole entry): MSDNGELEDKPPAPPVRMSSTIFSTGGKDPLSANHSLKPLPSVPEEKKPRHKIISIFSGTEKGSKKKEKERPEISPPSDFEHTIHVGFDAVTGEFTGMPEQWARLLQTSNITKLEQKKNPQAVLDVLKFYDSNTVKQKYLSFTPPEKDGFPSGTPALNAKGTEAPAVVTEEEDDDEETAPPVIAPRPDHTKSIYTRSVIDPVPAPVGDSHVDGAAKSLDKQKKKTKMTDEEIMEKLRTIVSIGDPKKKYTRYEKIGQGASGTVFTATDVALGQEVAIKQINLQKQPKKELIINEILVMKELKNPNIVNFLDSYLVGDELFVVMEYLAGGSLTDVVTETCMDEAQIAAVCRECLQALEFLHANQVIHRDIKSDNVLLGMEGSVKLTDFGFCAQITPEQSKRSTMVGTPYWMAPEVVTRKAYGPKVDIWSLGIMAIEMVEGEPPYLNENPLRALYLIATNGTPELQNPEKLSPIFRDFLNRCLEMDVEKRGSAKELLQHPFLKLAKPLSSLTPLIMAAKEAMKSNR

MKK7β(h) = target: T4, MKK7β(h) (human, UniProt O14733 1-419, limits assumed)
T4 sequence (looked up): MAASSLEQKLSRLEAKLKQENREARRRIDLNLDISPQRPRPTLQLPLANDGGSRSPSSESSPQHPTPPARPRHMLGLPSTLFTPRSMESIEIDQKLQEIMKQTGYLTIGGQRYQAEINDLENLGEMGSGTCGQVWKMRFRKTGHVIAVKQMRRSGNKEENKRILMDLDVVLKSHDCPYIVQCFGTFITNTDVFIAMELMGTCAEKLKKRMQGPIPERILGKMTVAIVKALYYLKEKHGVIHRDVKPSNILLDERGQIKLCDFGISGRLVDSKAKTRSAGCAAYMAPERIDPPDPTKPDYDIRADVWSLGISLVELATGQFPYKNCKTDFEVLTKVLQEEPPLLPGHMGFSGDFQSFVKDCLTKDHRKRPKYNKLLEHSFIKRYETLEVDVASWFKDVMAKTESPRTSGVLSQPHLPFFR

NEK11(h) = target: T5, NEK11(h) (human, UniProt Q8NG66 1-645, limits assumed)
T5 sequence (looked up): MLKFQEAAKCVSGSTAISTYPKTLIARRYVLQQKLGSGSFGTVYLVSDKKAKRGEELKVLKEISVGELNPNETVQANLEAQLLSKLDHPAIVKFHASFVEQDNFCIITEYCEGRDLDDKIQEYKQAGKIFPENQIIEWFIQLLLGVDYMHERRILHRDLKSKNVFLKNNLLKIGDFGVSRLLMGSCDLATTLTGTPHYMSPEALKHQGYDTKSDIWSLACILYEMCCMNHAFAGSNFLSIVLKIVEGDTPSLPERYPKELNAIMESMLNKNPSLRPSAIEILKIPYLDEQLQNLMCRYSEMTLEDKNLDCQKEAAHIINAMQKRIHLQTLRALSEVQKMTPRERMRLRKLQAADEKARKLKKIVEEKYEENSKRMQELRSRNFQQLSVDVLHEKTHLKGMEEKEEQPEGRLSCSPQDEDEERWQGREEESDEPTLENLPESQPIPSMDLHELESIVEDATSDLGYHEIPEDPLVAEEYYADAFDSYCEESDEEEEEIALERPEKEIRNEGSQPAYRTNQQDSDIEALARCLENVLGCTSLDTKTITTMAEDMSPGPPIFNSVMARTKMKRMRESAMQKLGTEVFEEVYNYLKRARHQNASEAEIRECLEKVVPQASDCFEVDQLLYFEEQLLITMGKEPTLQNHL

Row | Binder | % activity, 100 µM (MEK1(h)) | % activity, 100 µM (CDK3/cyclinE(h)) | % activity, 100 µM (Mer(h)) | % activity, 100 µM (Abl(Y253F)(h)) | % activity, 100 µM (MAPKAP-K2(h)) | % activity, 100 µM (cSRC(h)) | % activity, 100 µM (DAPK1(h)) | % activity, 100 µM (EphA5(h)) | % activity, 100 µM (PKCβII(h)) | % activity, 100 µM (EphA3(h)) | % activity, 100 µM (DAPK2(h)) | % activity, 100 µM (PAK2(h)) | % activity, 100 µM (MKK7β(h)) | % activity, 100 µM (NEK11(h))
1 | KAFAKLAARLYRKALARQLGVAA [MMI-0400] | 77% | 92% | 50% | 78% | 5% | 14% | 36% | 24% | 75% | 12% | 16% | 59% | 94% | 33%
2 | FAKLAARLYRKALARQLGVAA [MMI-0300] | 77% | 94% | 52% | 86% | 5% | 26% | 46% | 18% | 82% | 6% | 32% | 65% | 100% | 53%
